# Test: yeast display, Sf9 membrane polyspecificity reagent, FACS + sequencing; frameworks hold sequencing errors
# Procedure, shortened: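 Nanobodies came from a synthetic yeast display library in Saccharomyces cerevisiae BJ5465, induced with galactose for 36–48 hours and stained for 1 hour at 4 °C with 10% biotinylated, detergent-solubilized Sf9 membrane reagent. Cells were enriched on streptavidin microbeads and then FACS-sorted, with low and high (top ~1%) gates set on anti-HA fluorescence for expression and streptavidin fluorescence for reagent binding. Each polyreactivity label reflects the gate a clone came from. Genes were amplified by colony PCR, sequenced by MiSeq 2 × 250 and filtered by CDR length.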
row,Sequence,polyreactivity (PSR sort gate)
1,QVQLVESGGGLVQAGGSLRLSCAASGRTFTQYAMGWYRQAPGKERELVARISYSGGTTYYADSVKGRFTISRDNAKNTVYLQMNSLKPEDTAVYYCARDYYGSVRFDHWGQGTQVTVSS,high polyreactivity
2,QVQLVESGGGLVQAGGSLRLSCAASGRTFTQYAMGWYRQAPGKEREMVAAISWRGGSTYYADSVKGRFTISRDNAKNTVYVQMNSLKPEDTAVSYCAKRYFRGYPLYDYWGQGTQVTVSS,high polyreactivity
3,QVQLVESGGGLVQAGGSLRLSCAASGRTFTQYAMRWYRQAPGKERELVAAISWRGGSTYYADSVKGRFTISRDNAKNTVYLQMNSLKPEDTAVYYCAKRYFRGYPLYDYWGQGTQVTVSS,high polyreactivity
4,QVQLVESGGGLVQAGGSLRLSCAASGRTFTRYAMGRYRQAPGKERELVASISGSGGRTNYADSVKGRFTISRDNAKNTVYLQMNSLKPEDTAVYYCAARYRTWFGYWGQGTQVTVSS,high polyreactivity
5,QVQLVESGGGLVQAGGSLRLSCAASGRTFTRYAMGWYRQAPGKERELVAAISWSGGSTYYADSVKGRFTISRDNAKNTVYLQMNSLKPEDTAVYYCNAYYYYPEFNYWGQGTQVTVSS,high polyreactivity
6,QVQLVESGGGLVQAGGSLRLSCAASGRTFTSYAMGWYRQAPGKERELVAAITRGGRTNYADSVKGRFTISRDNAQNTVYLQMNSLKPEDTAVYYCNADGPGYAAKYYWKYDYWGQVTQVTVSS,low polyreactivity
7,QVQLVESGGGLVQAGGSLRLSCAASGRTFTSYPMGWYRQAPGKERELVAVITRRGGSTSYADSVKGRFTISRDNAKHTVYLQMNSLKPEDTAVYYCAAKRTWPDVKYIRYGYWGQGTQVTVSS,high polyreactivity
8,QVQLVESGGGLVQAGGSLRLSCAASGRTFTTNAMGWYSQARGKERELVAAINSGGSTNYADSVKGRFTISRDNAKNTVYLQMNRLKPEDTAVYYCAKRQRDYSSVFEVDYWGQGTQVTVSS,low polyreactivity
9,QVQLVESGGGLVQAGGSLRLSCAASGRTFTTYAMGWYRQAPGKERELVAAISGSGGSTYYADSVKGRFTISRDNAKNTVYLQMNSLKPEDTAVYYCATAYYYHGGYYYPYDDYWGQGTQVTVSS,low polyreactivity
10,QVQLVESGGGLVQAGGSLRLSCAASGRTFTTYAMGWYRQAPGKERELVAAITSGGSTNYADSVKGRFTISRDNAKNTVYLQMNSLKPEDTAVYYCAARFRVYTYSQRHWREFGYWGQGTQVTVSS,high polyreactivity
11,QVQLVESGGGLVQAGGSLRLSCAASGRTFTTYTMGWYRQAPGKERELVAAISWGGTSTYYADSVKGRFTISRDNAKNTVYLQMNSLKPDDTAVYYCNVLERGPGGPDDSWGQGTQVTVSS,low polyreactivity
12,QVQLVESGGGLVQAGGSLRLSCAASGRTFTVNAMGWYRQAPGKEREFVATISYRGGSTYADSVKGRFTISRDNAKNNVYLQMNSLKPEDTAVYYCAARSFWPYYGGDYDYWGQGNQVTVSS,high polyreactivity
13,QVQLVESGGGLVQAGGSLRLSCAASGRTFTVYAMGGSRQAPGKERELVAGIRRGDSTYYADSVKGRFTISRDNAKNSVDFQMNSLKPEDTAVYYCNARSSGRSYYYWGQGTQVTVSS,high polyreactivity
14,QVQLVESGGGLVQAGGSLRLSCAASGRTFTVYAMGWYRQAPGKEREFVATISWSGGRTYYADSVKGRFTISRDNAKNTVYLQMNSLKPEDTAVYYCSAQEYTTRFYFNRDYWGQGTQVTVSS,low polyreactivity
15,QVQLVESGGGLVQAGGSLRLSCAASGRTFTVYTMGWYRQAPGKERELVAVISTGGRTYYADSVKGRFTISRDNAMNTVYLQMNSLKPEDTAVYYCAAKFTREYYWGQGTQVTVSS,high polyreactivity
16,QVQLVESGGGLVQAGGSLRLSCAASGRTFTWNAMGWYRQAPGKERELVADITNNGGSTYYADSVKGRFTISRDNAKNTVYLQMNSLKPEDTAVYYCAKRRNYWFSFDYWGQGTQVTVSS,low polyreactivity
17,QVQLVESGGGLVQAGGSLRLSCAASGRTFTYNAMGWYRQAPGKERELVAAITYRGGSTYYADSVKGRFTISRDNSNNTVYLQMNSLKPEDTAVYYCAASVSYYRYNTPHYYYWGQGTQVTVSS,high polyreactivity
18,QVQLVESGGGLVQAGGSLRLSCAASGRTFTYNAMGWYRQAPGKERELVASIRRSGTITYYADSVKGRFTISRDNAKNTVYLQMNSLKPEDTAVYYCAARYPWYRYYSWGQGTQVTVSS,high polyreactivity
19,QVQLVESGGGLVQAGGSLRLSCAASGRTFTYNTMGWYRQAPGKERELVAAISSRGGRTYYADSVKGRFTISRDNAKNTVYLQMNSLKPEDTAVYYCNADYRYPQYYHRTWIRYDYWGQGTQVTVSS,high polyreactivity
20,QVQLVESGGGLVQAGGSLRLSCAASGRTFTYNTMGWYRQAPGKERELVAAISSSGGSTYYADSVKGRFTISRDNAKNTVYLQMNSLKPEDTAVYYCAKRYFSSSRYYYWGQGTQVTVSS,high polyreactivity
21,QVQLVESGGGLVQAGGSLRLSCAASGRTFTYYAMGWYRQAPGKERELVAAITSGGRTYYADSVKGRFTISRDNAKNTVYLQMNSLKPEDTAVYYCAARRIRDYYRSYDYWGQGTQVTVSS,high polyreactivity
22,QVQLVESGGGLVQAGGSLRLSCAASGRTFTYYAMGWYRQAPGKERELVAAITWSGGSTYYADSVKGRFTISRDNAKNTVYLQMNSLKPEDTAVYYCAAVDADYYYWGQGTQVTVSS,high polyreactivity

row,Sequence,polyreactivity (PSR sort gate)
1,QVQLVESGGGLVQAGGSLRLSCAASGRTFTYYAMGWYRQAPGKERELVATIRSGGTTNYADSVKGRFTISRDNAKNTVYLQMNSLKPEDTAVYYCARVLSYVWYYRDPYQYPDYDYWGQGTQVTVSS,low polyreactivity
2,QVQLVESGGGLVQAGGSLRLSCAASGRTFVDYAMGWYRQAPGKERELVAAINTGGRTKYADSVKGRFTISRDNAKITVYLQMNSLKPEDTAVYYCAARKQYGGVRGDYWGQGTQVTVSS,high polyreactivity
3,QVQLVESGGGLVQAGGSLRLSCAASGRTFVDYVMGWYRQAPGKERELVAAISRSGSTYYADSVKGRFTISRDNAKNTVYLQMNSLKPEDTAVYYCNVEYLRTYYILSDYWGQGTQVTVSS,low polyreactivity
4,QVQLVESGGGLVQAGGSLRLSCAASGRTFVFNAMGWYRQAPGKERELVAAITKNGGSTYYADSVKGRFTISRDNAKNPVYLQMNSLKPEDTAVYYCAGRRGYPFYYWGQGTQVTVSS,low polyreactivity
5,QVQLVESGGGLVQAGGSLRLSCAASGRTFVFYAMGWYRQAPGKERELVAAISSSGGSTYYADSVKGRFTISRDNAKNTVYLQMNSLKPEDTAVYYCNADFYSVGSQYGYWGQGTQVTVSS,high polyreactivity
6,QVQLVESGGGLVQAGGSLRLSCAASGRTFVGNAMGWYRQAPGKERELVATITGSGGRTYYADSVKGRFTISRDNAKNTVYLQMNSLKPEDTAVYYCAAKRSRYRYDYWGQGTQVTVSS,high polyreactivity
7,QVQLVESGGGLVQAGGSLRLSCAASGRTFVGNAMGWYRQAPGKERELVATITRRGGSTYYADSVKGRFTISRDNAKNTVYLQMNSLKPEDTAVYYCSAGSQPGRKYYYWGQGTQVTVSS,high polyreactivity
8,QVQLVESGGGLVQAGGSLRLSCAASGRTFVGNGKGWYRLAPGKERELLASISFSGGAGTYYADSVKGRFTISRDNAKYTVYLQMNSLKPEDTAVYYCAKRYVTPTYRRYYWGPGTQVTVSS,high polyreactivity
9,QVQLVESGGGLVQAGGSLRLSCAASGRTFVGYAMGWYRQAPGKEREFVAAISYRGGRTYYADSVKGRFTISRDNAKNTVYLQMNSLKPEDTAVYYCAAEYRSNHGGVDYWGQGTQVTVSS,high polyreactivity
10,QVQLVESGGGLVQAGGSLRLSCAASGRTFVGYAMGWYRQAPGKERELVAAISIGGGRTYYADSVKGRFTISRDNAKNTVYLQMNSLKPEDTAVYYCAAVFRQSNRHGGYDYWGQGTQVTVSS,high polyreactivity
11,QVQLVESGGGLVQAGGSLRLSCAASGRTFVGYPMGWCRQAPGKERELVAAIDLSDGSTSYADSVKGRFTISRDHAKNTVYLQMISLTPEHTAVYYCAKTSANVYAGAHDSWGQGTQVTVSS,low polyreactivity
12,QVQLVESGGGLVQAGGSLRLSCAASGRTFVGYVMGWDRQAPGKERELVAAISTSGGRTYYADSVKGRFTISRDNAKNTGYLQMNSLKPEDTAVYYCNAVSKQPIGYEYWGQGSQVTVSS,high polyreactivity
13,QVQLVESGGGLVQAGGSLRLSCAASGRTFVHYTMGWYRQAPGKERELVAAISGTGTSTYYADSVKGRFTISRDNAKNTVYLQMNSLKPEDTAVYYCARDPFFGFHIGYPRRDYWGQGTQVTVSS,low polyreactivity
14,QVQLVESGGGLVQAGGSLRLSCAASGRTFVIYAMGWYRQAPGKERELVAAISKGGGSTYYADSVKGRFTISRDNAKNTVYLQMNSLKPEDTAVYYCAAGYGTYYQYSRFDYWGQGTQVTVSS,high polyreactivity
15,QVQLVESGGGLVQAGGSLRLSCAASGRTFVIYDMGWYRQAHGKERELVAGITRSGGSTYADSVKGRFTISRDNAKNTVYLQMNSLKPEDTAVYYGARRKLYHKSPYDYWGQGTQVTVSS,low polyreactivity
16,QVQLVESGGGLVQAGGSLRLSCAASGRTFVKNTMGWYRQATGKERELVAAISSSGGSTYYADSVKGRFTISRHNAKNTVYLQMNSLNPEDTAVYFCAVSYPYKHAGGWYAYNYWGQGTQVTVSS,high polyreactivity
17,QVQLVESGGGLVQAGGSLRLSCAASGRTFVLNVMGWYRQAPGKERELVADITSGDNTYYADSVKGRFTISRDNAKNTVYLQRNSLKPEDTAVYYCAADGWFYFGYDYWGQGTQVTVSS,low polyreactivity
18,QVQLVESGGGLVQAGGSLRLSCAASGRTFVLYTMGWYRQAPGKERELLAVGSTYYADSVKGRFTISRDNAKNTVYLQMNSLKPEDTAVYYCAVDLYWSYFNGALGYRYYYWGQGTQVTVSS,high polyreactivity
19,QVQLVESGGGLVQAGGSLRLSCAASGRTFVLYTMGWYRQAPGKERELVAAISGSGGRSYYADSVKGRFTISRDHAKNSVYLQMNSLKPEDTAVYYCAAYGQGLPLYGYWGQGTQVTVSS,high polyreactivity
20,QVQLVESGGGLVQAGGSLRLSCAASGRTFVNYALGWYRQAPGKERELVAAISGGGGTNYADSVKGRFTISRDNAKNTVYLQMNSLKPEDTAVYYCNAVPSQHDEFDYWGQGTQVTVSS,low polyreactivity
21,QVQLVESGGGLVQAGGSLRLSCAASGRTFVPYAMGWYRQAPGKEREFVAAISSRVASTYYADSVKGRFTISRDNAKNTVYLQMNSLKPEDTAVYYCARTNPAYSIYDYWGQGTQVTVSS,low polyreactivity
